From patent publication US20180186890A1 (UNITED STATES OF AMERICA AS REPRESENTED BY THE SECRETARY …, published 2018)

Target: T1, mouse CD276 expressed on the cell surface (mouse, UniProt Q8VE98 29-316)
T1 construct: whole, on cells; also called CHO-msCD276; host CD276 on tumor vasculature of CD276 WT mice
T1 sequence (looked up): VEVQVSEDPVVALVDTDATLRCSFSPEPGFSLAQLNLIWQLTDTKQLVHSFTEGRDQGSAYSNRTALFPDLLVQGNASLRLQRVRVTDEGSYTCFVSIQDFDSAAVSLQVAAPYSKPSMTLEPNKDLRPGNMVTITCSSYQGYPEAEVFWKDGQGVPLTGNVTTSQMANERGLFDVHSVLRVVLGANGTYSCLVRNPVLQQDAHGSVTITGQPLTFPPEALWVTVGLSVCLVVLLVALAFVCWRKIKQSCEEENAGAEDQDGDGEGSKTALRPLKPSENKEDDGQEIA
Test: immunofluorescence of tumor vasculature after IP injection; no green staining in CD276 KO mice

B1: FITC-labeled human anti-CD276 antibody m8524 IgG1 (antibody, V domains shown)
VH: QVQLQQSGAEVKKPGSSVKVSCKASGGTFSSYAISWVRQAPGQGLEWMGGIIPILGIANYAQKFQGRVTITADESTSTAYMELSSLRSEDTAVYYCARGGSGSYHMDVWGKGTTVTVSS
VL: EIVLTQSPATLSLSPGERATLSCRASQSVSSYLAWYQQKPGQAPRLLIYDASNRATGIPARFSGSGSGTDFTLTISSLEPEDFAVYYCQQRSNWPPRITFGQGTRLEIK
modifications: FITC-labeled antibody (site not stated)
notes: IgG1; also called anti-CD276 mAb
B1: binds.
